For assay [1], the target named is T1, soluble-type human DSG3-mouse IgG2aFc fusion protein (human; mouse, UniProt P32926 50-616).
T1 construct: also called human desmoglein 3; desmoglein 3 standard; not shown: mouse IgG2a Fc, printed 'mouse IgG2aFc' and 'mouse IgG2 constant region'
T1 sequence: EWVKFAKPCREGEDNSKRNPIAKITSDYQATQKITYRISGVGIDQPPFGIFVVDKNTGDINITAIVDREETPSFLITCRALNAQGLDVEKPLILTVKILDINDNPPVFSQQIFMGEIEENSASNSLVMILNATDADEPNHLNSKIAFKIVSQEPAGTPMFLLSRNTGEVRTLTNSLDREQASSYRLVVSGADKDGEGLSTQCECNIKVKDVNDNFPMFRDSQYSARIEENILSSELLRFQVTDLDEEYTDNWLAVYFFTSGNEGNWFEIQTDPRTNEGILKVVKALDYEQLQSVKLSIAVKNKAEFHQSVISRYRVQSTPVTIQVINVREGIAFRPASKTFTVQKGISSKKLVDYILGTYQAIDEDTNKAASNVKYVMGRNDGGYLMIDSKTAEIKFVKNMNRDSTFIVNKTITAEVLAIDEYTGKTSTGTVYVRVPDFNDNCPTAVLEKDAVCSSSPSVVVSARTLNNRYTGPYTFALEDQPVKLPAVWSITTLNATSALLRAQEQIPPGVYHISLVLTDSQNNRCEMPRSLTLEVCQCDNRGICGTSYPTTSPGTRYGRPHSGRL
Description: sandwich ELISA, luminescence over blank; immobilized DF151, detection DF151; antigen 1000 pg/mL. How it is done: (§1) Subsequently, the antigen solutions having the above-described concentrations were each added to the plate in an amount of 50 μL/well, and the plate was incubated at room temperature for 1 hour. Then, the antigen solution was removed, and the plate was washed with 0.05% Tween 20-PBS three times. Thereafter, the 1-μg/mL biotinylated antibody solution was added in an amount of 50 μL/well, and the plate was incubated at room temperature for 1 hour.
(§2) Then, after removing the streptavidin-HRP solution and washing the plate with 0.05% Tween 20-PBS three times, a substrate solution (SuperSignal ELISA Femto Maximum Sensitivity Substrate (registered trademark); Pierce Biotechnology, Inc.) was added in an amount of 100 μL/well. One minute thereafter, the luminescence intensity was measured using a luminometer, Fluoroskan Ascent FL (trade name, Thermo Electron Corporation).
(§3) The numerical values shown in Table 1 represent the minimum values of the antigen solution concentration having an S/N ratio of higher than 2 (hereinafter, referred to as “detection limit concentration”) and the unit of the numerical values is pg/mL. The S/N ratio was determined by dividing the luminescence intensity at the respective antigen solution concentrations ([…]) by the luminescence intensity of an antigen-free blank antigen solution (0 μg/mL).

Assay [2] addresses T1, soluble-type human DSG3-mouse IgG2aFc …. As to the kind of experiment: sandwich ELISA, luminescence over blank; immobilized DF151, detection MAB1720; antigen 10 pg/mL. How it is done: as §1, §2
The numerical values shown in Table 1 represent the minimum values of the antigen solution concentration having an S/N ratio of higher than 2 (hereinafter, referred to as “detection limit concentration”) and the unit of the numerical values is pg/mL. […]

Assay [3] has the same target. Description: SPFS sandwich; immobilized DF151, detection MAB1720; antigen 1,000 pg/mL (µg/mL in the source). How it is done: (§4) Once again, a Tris-buffered saline (TBS) containing 0.05% by mass of Tween 20 was fed and circulated in the flow path for 10 minutes to wash the flow path. Then, with the flow path being filled with PBS buffer (pH 7.4), the assay area was irradiated with laser light (640 nm, 40 μW) from the back side of the metal thin films, and the fluorescence intensity was measured using a photomultiplier tube (PMT) arranged above the assay area. The thus measured value was defined as “signal” (S) at a desmoglein 3 concentration of 100 μg/mL.
(§5) On another front, the fluorescence intensity was also measured by the same procedures as described above, except that a PBS solution containing no desmoglein 3 (0 μg/mL) was fed in place of the PBS solution containing 100 μg/mL of desmoglein 3. The thus measured value was defined as “noise” (N).
(§6) Further, the fluorescence intensity was measured by the same procedures as described above, except that the desmoglein 3 concentration of the fed PBS solution was changed to 10,000 μg/mL, 5,000 μg/mL, 1,000 μg/mL, 200 μg/mL, 50 μg/mL, 10 μg/mL, 3.16 μg/mL, 1 μg/mL, 0.316 μg/mL, 0.1 μg/mL and 0.031 μg/mL. The thus measured values were each defined as “signal” (S) at the respective concentrations.

The target is the same in assay [4]. As to the kind of experiment: sandwich ELISA, luminescence over blank; immobilized DF151, detection MAB1720; antigen 25000 pg/mL. How it is done: as §1, §2, §3
Assay [5] shares this target. As to the kind of experiment: sandwich ELISA, luminescence over blank; immobilized DF151, detection MAB1720; antigen 1000 pg/mL. How it is done: as §1, §2, §3
Assay [6] shares this target. Description: sandwich ELISA, luminescence over blank; immobilized DF151, detection D219-3; antigen 1000 pg/mL. How it is done:
as §1, §2, §3

Assay [7] has the same target. Description: SPFS sandwich; immobilized DF151, detection D219-3; antigen 1,000 pg/mL (µg/mL in the source). How it is done: as §4, §5, §6
Assay [8] has the same target. Description: sandwich ELISA, luminescence over blank; immobilized DF151, detection D219-3; antigen 5000 pg/mL. As for the experimental part:
as §1, §2, §3

Assay [9] has the same target. Description: sandwich ELISA, luminescence over blank; immobilized DF151, detection D219-3; antigen 200 pg/mL. How it is done:
as §1, §2, §3

For assay [10] the target is unchanged. Description: sandwich ELISA, luminescence over blank; immobilized DF151, detection D219-3; antigen 10 pg/mL. How it is done:
as §1, §2, §3

For assay [11] the target is unchanged. Description: sandwich ELISA, luminescence over blank; immobilized DF151, detection D219-3; antigen 25000 pg/mL. How it is done:
as §1, §2, §3

B1: DF151 (DF151[I] antibody) (antibody, mouse IgG2b, kappa, V domains shown)
VH: EVQLQQSGPELVKPGASVKISCKASGYSFTAYYMHWVKQSPEKCLEWIGQINPSTGGTTYNQKFKAKATLTVDKSSSTAYMQLKSLTSEDSAVYYCARWGDSWGQGTTLTVSS
VL: DIVLTQSPASLAVSLGQSVTISCRASESVEYYGTSLMQWYQQKPGQPPKLLIYGASDVESGVPARFSGSGSGTDFSLNIHPVEEDDIAMYFCQQSRKVPYTFGSGTKLEIKR
notes: Complete antibody; Biotinylated as detection antibody in ELISA; labeled with Alexa Fluor 647 as detection antibody in SPFS; also called DF151 antibody
For the molecule B1, the S/N ratio in assay [1] came out at 2.8; in assay [2] it was 1.1; in assay [3] it was 60.8; in assay [4], 82.2; in assay [5], 4.1; in assay [6] it was 2.3. Besides, the S/N ratio in [7] was 24.4; in [8], 9.2; in assay [9], 1; in assay [10], 0.9; in [11], 50.3.
